Measured values taken from paper PMC4186968, “Molecular Basis for Coordinating Transcription Termination with Noncoding RNA Degradation” (Molecular Cell, 2014).

Assays:
Nrd1p-Nab3p = test: Electromobility shift assay of Nrd1p-Nab3p binding to RNA substrates; parameters: species or system S. cerevisiae; conditions: EMSA as for wt RNA; not accurately determined due to poor fit of the curve; estimated by graphical interpolation; read-out: Affinity of Nrd1p-Nab3p for RNA, estimated by graphical interpolation
Text: Figure S6: Related to figure 6. A. Coomassie stained SDS-PAGE showing 10 pmol of each protein preparation used (50 pmol of the CID). Asterisks indicate proteolytic fragments of Air2p (deletions at the C-terminal unstructured region) and Nrd1-ΔCIDp (N-terminal truncation) that constitutes approximately 20% of the full-length protein. M: molecular weight marker. B. Analysis of Nrd1p-Nab3p binding to either the wt RNA, containing motifs required for high-affinity RNA-binding (open boxes), or a mutant variant harboring point mutations designed to disrupt all motifs (mutations underlined). The plots correspond to affinity curves generated by the Prism software from values derived from three independent electromobility shift assays (see supplemental experimental procedures). Bars denote standard deviations.
The affinity for the mutant RNA could not be accurately determined due to the poor fit of the curve but it was estimated to be approximately 45 nM by graphical interpolation. C. Polyadenylation assays using the wt and the mutant RNAs as substrates to test whether high-affinity RNA-binding by Nrd1p-Nab3p is required for stimulation of polyadenylation. Panels correspond to different gels.
(1 picture or pasted object on this page, not shown here) […]
for Nrd1 and Nab3) and stored at -80 °C. […]
average of three measurements. The experimental binding isotherms were analyzed by non- […]

[1] = biological target: T1, Nrd1 (rNrd1);Nab3 (rNab3) (Saccharomyces cerevisiae;Saccharomyces …, UniProt P53617;P38996 1-575;1-802, |); test: EMSA; EMSA samples processed as described for the polyadenylation assays; buffer, salt, pH and temperature not in the material; n=3, single-site fit (Prism); conditions: protein: recombinant;recombinant; tags: ;C-terminal TEV-His6 (from pDL469 primers); copies: 1;1; single strand
T1 sequence 1: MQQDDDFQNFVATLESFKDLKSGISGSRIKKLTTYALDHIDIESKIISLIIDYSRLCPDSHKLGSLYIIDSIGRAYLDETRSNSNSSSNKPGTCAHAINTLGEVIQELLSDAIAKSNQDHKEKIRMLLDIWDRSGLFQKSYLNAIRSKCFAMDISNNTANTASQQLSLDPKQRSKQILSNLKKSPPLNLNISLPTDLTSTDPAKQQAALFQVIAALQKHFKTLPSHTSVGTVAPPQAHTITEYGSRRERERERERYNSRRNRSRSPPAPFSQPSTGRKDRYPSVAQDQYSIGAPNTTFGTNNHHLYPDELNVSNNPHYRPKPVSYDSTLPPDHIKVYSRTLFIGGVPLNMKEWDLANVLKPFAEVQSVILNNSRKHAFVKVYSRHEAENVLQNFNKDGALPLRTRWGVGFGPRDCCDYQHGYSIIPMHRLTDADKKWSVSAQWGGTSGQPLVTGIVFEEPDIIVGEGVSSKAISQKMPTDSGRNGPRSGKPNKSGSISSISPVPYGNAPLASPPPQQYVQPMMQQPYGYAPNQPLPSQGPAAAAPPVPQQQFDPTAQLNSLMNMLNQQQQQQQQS
T1 sequence 2: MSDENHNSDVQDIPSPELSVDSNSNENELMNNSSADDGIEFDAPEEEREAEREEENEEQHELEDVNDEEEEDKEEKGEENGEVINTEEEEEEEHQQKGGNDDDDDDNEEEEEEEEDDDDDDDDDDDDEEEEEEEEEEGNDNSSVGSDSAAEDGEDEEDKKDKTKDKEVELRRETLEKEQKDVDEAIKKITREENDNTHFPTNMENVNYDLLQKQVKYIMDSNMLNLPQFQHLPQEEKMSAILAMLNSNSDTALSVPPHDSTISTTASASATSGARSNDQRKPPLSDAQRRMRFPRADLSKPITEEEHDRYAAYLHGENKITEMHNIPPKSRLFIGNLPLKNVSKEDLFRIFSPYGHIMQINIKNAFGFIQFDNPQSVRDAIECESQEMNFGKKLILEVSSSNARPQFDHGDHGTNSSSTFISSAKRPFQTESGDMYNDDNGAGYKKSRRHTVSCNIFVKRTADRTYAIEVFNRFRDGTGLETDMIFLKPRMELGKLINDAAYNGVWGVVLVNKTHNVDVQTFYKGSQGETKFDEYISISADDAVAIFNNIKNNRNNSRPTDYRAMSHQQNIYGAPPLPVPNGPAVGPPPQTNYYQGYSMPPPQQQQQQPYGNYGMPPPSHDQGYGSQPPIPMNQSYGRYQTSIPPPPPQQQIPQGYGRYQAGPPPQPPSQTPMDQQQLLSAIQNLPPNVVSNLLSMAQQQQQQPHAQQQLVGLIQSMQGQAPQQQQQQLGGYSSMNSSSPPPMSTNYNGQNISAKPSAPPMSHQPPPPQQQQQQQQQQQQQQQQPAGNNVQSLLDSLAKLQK

[2] = biological target: T1, Nrd1 (rNrd1);Nab3 (rNab3); test: EMSA; Kd value not in the material (legend line truncated); EMSA samples processed as described for the polyadenylation assays; buffer, salt, pH and temperature not in the material; n=3, single-site fit (Prism); conditions: protein: recombinant;recombinant; tags: ;C-terminal TEV-His6 (from pDL469 primers); copies: 1;1; single strand
Trf4p NIM peptide = test: Equilibrium binding of Nrd1p CID mutants to the NIM peptide by fluorescence anisotropy (FA); parameters: species or system S. cerevisiae; conditions: Nrd1p CID variant vs wild-type
Text: Equilibrium binding experiments with both the protein and peptide mutants (in red and blue, respectively) were monitored by FA (for the binding isotherms, see Figure S5).
The importance of these contacts was further tested in a quantitative in vitro binding assay using FA.

**Q.** Which Kd (Nrd1p-Nab3p) does the source give for “mutant RNA: mutant RNA with point mutations disrupting all motifs: GAAACGCAAUGAAUUAAGACUCGAUACAUUGCAAUUAGCU (RNA, backbone not given here)” here?
**A.** ~45 nM

**Q.** GAAACGUAAUGAAUUAAGUCUUGAUAUAUAACAAUUAGCU (ssRNA) [Wt RNA (DL2974)] was tested. Which Kd [1] did it give?
**A.** 2.4 ± 0.3 nM

**Q.** Which “fold loss of affinity vs wt RNA” value [2] does the source give for GAAACGCAAUGAAUUAAGACUCGAUACAUUGCAAUUAGCU (ssRNA) [Mutant RNA (DL2975)] here?
**A.** ~20 fold lower affinity than wt RNA

B1: I130K (protein)
chain: MQQDDDFQNFVATLESFKDLKSGISGSRIKKLTTYALDHIDIESKIISLIIDYSRLCPDSHKLGSLYIIDSIGRAYLDETRSNSNSSSNKPGTCAHAINTLGEVIQELLSDAIAKSNQDHKEKIRMLLDKWDRSGLFQKSYLNAIRSKCFAMD
**Q.** B1 was tested. Which “Decrease in binding affinity for NIM relative to wild-type CID (fold)” value (Trf4p NIM peptide) did it give?
**A.** 20 fold
